Assay results reported in IntAct's records for PubMed 20562859.

Experiments:
atg10_human ATG10 = atg10_human ATG10 (UniProt Q9H0Y0)
rn123_human RNF123 = target: T1, rn123_human RNF123 (UniProt Q5XPI4)
T1 sequence: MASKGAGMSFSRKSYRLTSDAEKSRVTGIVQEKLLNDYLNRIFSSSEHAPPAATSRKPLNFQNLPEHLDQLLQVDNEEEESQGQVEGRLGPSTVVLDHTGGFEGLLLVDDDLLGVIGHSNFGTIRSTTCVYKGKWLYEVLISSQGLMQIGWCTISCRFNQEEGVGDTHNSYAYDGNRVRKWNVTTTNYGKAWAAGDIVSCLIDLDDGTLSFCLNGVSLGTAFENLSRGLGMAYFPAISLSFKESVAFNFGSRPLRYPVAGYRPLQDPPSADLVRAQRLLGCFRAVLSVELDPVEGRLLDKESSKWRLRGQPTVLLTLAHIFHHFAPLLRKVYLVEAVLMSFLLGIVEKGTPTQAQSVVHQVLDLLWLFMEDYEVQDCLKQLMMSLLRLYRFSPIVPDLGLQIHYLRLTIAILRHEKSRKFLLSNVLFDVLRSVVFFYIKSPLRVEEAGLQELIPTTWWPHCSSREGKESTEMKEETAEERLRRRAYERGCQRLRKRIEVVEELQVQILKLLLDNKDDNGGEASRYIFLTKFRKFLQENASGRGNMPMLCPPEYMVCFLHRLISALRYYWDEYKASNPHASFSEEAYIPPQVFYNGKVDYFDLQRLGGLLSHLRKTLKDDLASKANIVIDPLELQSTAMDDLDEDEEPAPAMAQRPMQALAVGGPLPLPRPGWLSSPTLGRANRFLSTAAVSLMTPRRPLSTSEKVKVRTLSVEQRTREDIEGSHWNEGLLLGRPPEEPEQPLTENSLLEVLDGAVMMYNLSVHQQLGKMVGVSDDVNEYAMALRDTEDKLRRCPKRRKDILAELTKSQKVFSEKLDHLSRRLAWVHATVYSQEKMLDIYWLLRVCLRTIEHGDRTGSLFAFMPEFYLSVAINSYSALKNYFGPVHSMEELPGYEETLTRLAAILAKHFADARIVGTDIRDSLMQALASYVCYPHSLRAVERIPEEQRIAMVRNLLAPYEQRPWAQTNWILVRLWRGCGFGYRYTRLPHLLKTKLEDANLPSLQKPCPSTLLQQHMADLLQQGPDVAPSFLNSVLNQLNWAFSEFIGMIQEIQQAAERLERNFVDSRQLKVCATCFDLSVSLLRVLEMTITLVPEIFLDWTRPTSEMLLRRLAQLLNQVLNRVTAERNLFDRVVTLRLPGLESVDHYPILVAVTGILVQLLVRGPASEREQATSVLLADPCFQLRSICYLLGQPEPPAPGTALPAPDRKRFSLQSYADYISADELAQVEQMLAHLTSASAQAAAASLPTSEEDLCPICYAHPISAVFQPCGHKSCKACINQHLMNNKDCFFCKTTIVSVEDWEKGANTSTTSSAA

nedd4_human NEDD4 = nedd4_human NEDD4 (UniProt P46934)
Sequence of nedd4_human NEDD4 (P46934 whole entry): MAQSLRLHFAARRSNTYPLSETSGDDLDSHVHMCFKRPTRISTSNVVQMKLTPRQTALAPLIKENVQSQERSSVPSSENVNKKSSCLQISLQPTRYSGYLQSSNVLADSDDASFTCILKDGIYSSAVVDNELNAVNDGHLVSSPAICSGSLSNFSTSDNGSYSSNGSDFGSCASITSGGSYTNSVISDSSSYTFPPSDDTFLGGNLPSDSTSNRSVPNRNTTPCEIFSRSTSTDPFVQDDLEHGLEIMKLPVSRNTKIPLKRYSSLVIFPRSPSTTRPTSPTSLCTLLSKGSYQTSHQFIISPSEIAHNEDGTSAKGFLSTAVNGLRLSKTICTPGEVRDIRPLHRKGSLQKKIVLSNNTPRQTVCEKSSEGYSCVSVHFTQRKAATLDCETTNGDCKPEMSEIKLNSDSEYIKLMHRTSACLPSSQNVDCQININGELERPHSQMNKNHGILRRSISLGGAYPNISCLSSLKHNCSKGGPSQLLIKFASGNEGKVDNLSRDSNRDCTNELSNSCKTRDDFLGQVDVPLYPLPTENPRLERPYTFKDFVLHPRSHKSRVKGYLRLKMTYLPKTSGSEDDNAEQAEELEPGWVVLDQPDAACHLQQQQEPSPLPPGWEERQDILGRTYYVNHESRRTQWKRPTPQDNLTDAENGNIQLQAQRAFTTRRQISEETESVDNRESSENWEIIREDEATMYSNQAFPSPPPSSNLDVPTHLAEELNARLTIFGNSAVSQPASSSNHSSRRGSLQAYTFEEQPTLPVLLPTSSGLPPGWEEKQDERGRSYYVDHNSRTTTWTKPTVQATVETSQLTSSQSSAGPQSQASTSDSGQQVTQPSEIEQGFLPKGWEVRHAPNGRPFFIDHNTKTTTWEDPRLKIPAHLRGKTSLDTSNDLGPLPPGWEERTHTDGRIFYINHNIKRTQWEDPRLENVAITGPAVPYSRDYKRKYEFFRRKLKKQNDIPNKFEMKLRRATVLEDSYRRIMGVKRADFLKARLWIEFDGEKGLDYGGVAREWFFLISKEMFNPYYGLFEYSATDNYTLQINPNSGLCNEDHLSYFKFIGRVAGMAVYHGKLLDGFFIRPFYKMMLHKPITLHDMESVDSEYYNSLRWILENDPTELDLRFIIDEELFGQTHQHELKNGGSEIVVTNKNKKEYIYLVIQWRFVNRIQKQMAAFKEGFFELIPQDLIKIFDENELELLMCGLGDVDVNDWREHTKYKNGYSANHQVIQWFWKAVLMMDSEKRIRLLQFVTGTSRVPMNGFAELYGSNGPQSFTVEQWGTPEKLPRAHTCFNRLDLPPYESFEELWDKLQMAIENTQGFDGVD

tbc15_human TBC1D15 = target: T2, tbc15_human TBC1D15 (UniProt Q8TC07)
T2 sequence: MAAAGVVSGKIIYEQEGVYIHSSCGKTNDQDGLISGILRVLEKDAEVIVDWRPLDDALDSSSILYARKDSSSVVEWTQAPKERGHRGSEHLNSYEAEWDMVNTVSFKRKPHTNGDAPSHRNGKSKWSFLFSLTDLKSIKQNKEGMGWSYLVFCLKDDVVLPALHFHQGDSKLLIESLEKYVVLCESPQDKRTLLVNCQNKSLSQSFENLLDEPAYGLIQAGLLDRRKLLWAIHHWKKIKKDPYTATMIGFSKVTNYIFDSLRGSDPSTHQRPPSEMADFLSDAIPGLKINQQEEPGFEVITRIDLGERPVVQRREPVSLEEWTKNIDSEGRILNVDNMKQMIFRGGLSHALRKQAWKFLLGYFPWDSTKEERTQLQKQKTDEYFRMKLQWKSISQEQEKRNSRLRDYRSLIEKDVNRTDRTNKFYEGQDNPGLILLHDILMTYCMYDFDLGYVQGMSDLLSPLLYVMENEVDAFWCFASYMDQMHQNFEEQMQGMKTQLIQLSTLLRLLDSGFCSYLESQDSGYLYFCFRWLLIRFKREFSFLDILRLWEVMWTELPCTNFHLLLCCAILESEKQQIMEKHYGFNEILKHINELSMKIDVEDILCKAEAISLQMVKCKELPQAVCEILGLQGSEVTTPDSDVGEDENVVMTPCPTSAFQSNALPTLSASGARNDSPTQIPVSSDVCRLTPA

rasf3_human RASSF3 = target: T3, rasf3_human RASSF3 (UniProt Q86WH2)
T3 sequence: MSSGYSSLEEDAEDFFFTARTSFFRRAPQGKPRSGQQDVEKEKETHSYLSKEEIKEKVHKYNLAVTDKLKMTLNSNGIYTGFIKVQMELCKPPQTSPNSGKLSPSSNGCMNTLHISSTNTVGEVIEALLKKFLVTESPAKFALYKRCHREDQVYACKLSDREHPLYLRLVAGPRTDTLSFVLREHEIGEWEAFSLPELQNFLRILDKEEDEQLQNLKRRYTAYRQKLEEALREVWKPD

Sequence of atg10_human ATG10 (Q9H0Y0 whole entry): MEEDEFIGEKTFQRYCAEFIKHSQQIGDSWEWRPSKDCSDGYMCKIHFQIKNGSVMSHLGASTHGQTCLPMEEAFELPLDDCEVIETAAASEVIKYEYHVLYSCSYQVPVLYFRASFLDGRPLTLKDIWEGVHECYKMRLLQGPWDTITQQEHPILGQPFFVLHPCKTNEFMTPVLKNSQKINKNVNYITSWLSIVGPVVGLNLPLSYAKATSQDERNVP

Row | effect of a mutation on the interaction (atg10_human ATG10) | effect of a mutation on the interaction (rn123_human RNF123) | effect of a mutation on the interaction (nedd4_human NEDD4) | effect of a mutation on the interaction (tbc15_human TBC1D15) | effect of a mutation on the interaction (rasf3_human RASSF3) | Substance
1 | decreasing interaction | decreasing interaction | decreasing interaction | decreasing interaction | decreasing interaction | Microtubule-associated protein 1 light chain 3 beta (Homo sapiens) (from UniProt Q9GZQ8) R69A
2 | increasing interaction | increasing interaction | decreasing interaction | decreasing interaction | increasing interaction | Microtubule-associated protein 1 light chain 3 beta (Homo sapiens) (from UniProt Q9GZQ8) F52A;L53A
